From the supplement of paper PMC12764529 come the findings set out here.

A short description of data set [1]: folding stability dG unfold from chymotrypsin proteolysis; higher = more stable. The procedure, abridged: (§1)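 Only designs with AlphaFold2 dimer inter-PAE above 15 were retained; each was a mini-protein under 80 residues with no cysteine, in a PA-tagged cDNA display construct. After digestion with trypsin and chymotrypsin and sequencing, K50 was inferred by Bayesian fitting of counts, and unfolding free energy was derived per protease or combined against a sequence-predicted unfolded-state K50 and a shared folded-state K50.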

The nature of data set [2]: folding stability dG unfold from trypsin proteolysis; higher = more stable. The procedure, abridged: as §1
The nature of data set [3]: folding stability dG unfold (combined trypsin and chymotrypsin); higher = more stable. The procedure, abridged:
as §1

± gives the half width of the 95% confidence interval.

Consider “SAGGSAGGMTITTTENPNSNLTTYDVTIGNTKVTVTVNPNNPGVIKTEGDNDVPVEVVINAVLSSAGGSAGG [r6_197_JUSTAS]”, for which the “folding stability dG unfold” value is 0.456 ± 0.043 kcal/mol in data set [1], 1.69 ± 0.059 kcal/mol in data set [2] and 1.21 ± 0.056 kcal/mol in data set [3].
The matching figures for “SAGGSAGGMTPVVVTVTITLPNGEVVEYRVPVAPDELEAAAEAVKEPLEAQGVDVEVEIEAVAASAGGSAGG [r6_721_JUSTAS]”: 1.5 ± 0.033 kcal/mol, 1.99 ± 0.065 kcal/mol and 1.7 ± 0.089 kcal/mol.
The matching figures for “SAGGSAGGMTVEIDLDLEVPDGGVRLERLVVDPERPLVLAFLTLEDGTKRVIPFESLEELLERLSAGGSAGG [r6_547_TrMRF]”: 1.21 ± 0.032 kcal/mol, 1.26 ± 0.064 kcal/mol and 1.23 ± 0.11 kcal/mol.
The matching figures for “SAGGSAGGMTVTIELPGSTYTVELPSSVKSVSELKVLEDGTLVLTFPSTGTTVTVPIPPPGSHHSAGGSAGG [r6_370_JUSTAS]”: 0.878 ± 0.13 kcal/mol, 1.03 ± 0.059 kcal/mol and 1.01 ± 0.11 kcal/mol.
With “SAGGSAGGMVEEIIEEFKKKGYNPEVEVRKTSPETTVVTLKLPDKEVIVEVKPLTPEELEEILRSAGGSAGG [r6_786_JUSTAS]”, the figures for the “folding stability dG unfold” value in data set [1], in data set [2] and in data set [3] were 1.05 ± 0.089 kcal/mol, 0.371 ± 0.052 kcal/mol and 0.824 ± 0.15 kcal/mol, respectively.
For “SAGGSAGGMVTTKELPSNKTVTVTVTPDPVAGREGATVKPPSTSETKNFGDPAAAAAMSPEKLSSAGGSAGG [r6_740_JUSTAS]”, the “folding stability dG unfold” value amounted to 0.2 ± 0.071 kcal/mol in data set [1], 0.42 ± 0.034 kcal/mol in data set [2] and 0.29 ± 0.15 kcal/mol in data set [3].
Consider “SAGGSAGGMVVYLQLPDKEATFFVPPSLSEEEVKERLKKALGDPDAPLTNLKIEEATPEELALESAGGSAGG [r6_122_JUSTAS]”, for which the “folding stability dG unfold” value in data set [1] is 0.515 ± 0.2 kcal/mol; in data set [2] it was -0.153 ± 0.095 kcal/mol; in data set [3], 0.222 ± 0.13 kcal/mol.
The matching figures for “SAGGSAGGMVYITVDIKKTDPLNGTEREEVITVKVNPDEVEKVIEELKSAPVNVEILKVTIIPPSAGGSAGG [r6_151_JUSTAS]”: 1.4 ± 0.043 kcal/mol, 1.75 ± 0.075 kcal/mol and 1.56 ± 0.065 kcal/mol.
The corresponding values for “SAGGSAGGMYVIRVKIYDKETGELIEELTLVFDSEEEAERAVRELAAALPPDVRVEVEIVKLPPSAGGSAGG [r6_688_TrROS_Hall]” are 4.85 ± 0.059 kcal/mol, 5.01 ± 0.18 kcal/mol and 4.99 ± 0.096 kcal/mol.
The matching figures for “SAGGSAGGNIDPDDITEVEEETYNFPNGWHIKIDYFRVPDDGQPIMKMEIEPMPPVKPDPNDKKSAGGSAGG [r6_758_TrROS]”: 1.23 ± 0.14 kcal/mol, -0.1 ± 0.11 kcal/mol and 0.627 ± 0.25 kcal/mol.
Consider “SAGGSAGGNIKVKVPYERHPDYYYMTVTIYDPGDDKKLELSYMFPPGTKMPAEEWARDIVKDILSAGGSAGG [r6_234_TrROS]”, for which the “folding stability dG unfold” value came out at 1.29 ± 0.1 kcal/mol in data set [1], 0.789 ± 0.091 kcal/mol in data set [2] and 1.13 ± 0.13 kcal/mol in data set [3].
Consider “SAGGSAGGNITPEAKKLVEELADQISEEFPNNGMDIEVEDITWQPDGNVVIRIRFNGWTIWIPVSAGGSAGG [r6_495_TrROS]”, for which the “folding stability dG unfold” value in data set [1] came to 2.25 ± 0.05 kcal/mol; in data set [2], 1.44 ± 0.083 kcal/mol; in data set [3], 2.03 ± 0.16 kcal/mol.
The matching figures for “SAGGSAGGPANKKYLLVADAEVDPETGTVKVTVEYPNGKKVEFTFPAKNFHPDEKVLVPVVVTDSAGGSAGG [r6_768_TrMRF]”: 0.67 ± 0.17 kcal/mol, 1.02 ± 0.052 kcal/mol and 0.86 ± 0.1 kcal/mol.
The matching figures for “SAGGSAGGPEIRITEARRDPNGMFTFIVEIPPEDLDNIKPGEEIEITFNGQEFNFNVQIIPADDSAGGSAGG [r6_373_TrROS]”: 1.13 ± 0.2 kcal/mol, 0.257 ± 0.14 kcal/mol and 0.716 ± 0.29 kcal/mol.
The corresponding values for “SAGGSAGGPETIPLRFGEEEVLLVLSPEDPDRFLAYFPAEGRVYLYRLLPEGLEFLREVPAEELSAGGSAGG [r6_915_TrMRF]” are 2.03 ± 0.13 kcal/mol, 2.1 ± 0.066 kcal/mol and 2.07 ± 0.1 kcal/mol.
With “SAGGSAGGPEVTITVEEKDGYLVLTVTVPPGVERLELTIEVNGKLVTLELELKPGQTLTFVLPPSAGGSAGG [r6_971_TrROS_Hall]”, the “folding stability dG unfold” value came to 3.86 ± 0.12 kcal/mol in data set [1], 4.6 ± 0.3 kcal/mol in data set [2] and 3.97 ± 0.13 kcal/mol in data set [3].
As to “SAGGSAGGPEVYPVPGLTPEQFRELVERHGGRLRVVLPGGEEVELDFTRDSRPIPGKPAVVVFGSAGGSAGG [r6_303_TrMRF]”, the “folding stability dG unfold” value in data set [1] was -0.544 ± 0.12 kcal/mol; in data set [2], 0.498 ± 0.019 kcal/mol; in data set [3], 0.12 ± 0.048 kcal/mol.
Turning to “SAGGSAGGPFKIKITEIFLIPFEPGEMIMIEIRFPNGKVYYIMLQVNPGNGWIWIAIMEIKPPDSAGGSAGG [r6_337_TrROS]”, the results for the “folding stability dG unfold” value in data set [1], in data set [2] and in data set [3] were 5.1 ± 0.12 kcal/mol, 3.91 ± 0.35 kcal/mol and 4.74 ± 0.33 kcal/mol, respectively.
The corresponding values for “SAGGSAGGPIKIKAKIFDPNGQPQEHEGEIDNPNGEPYKIKIDIFVLPDPDDEPNLVINVEIEPSAGGSAGG [r6_335_TrROS]” are 3.33 ± 0.17 kcal/mol, 1.38 ± 0.11 kcal/mol and 2.77 ± 0.13 kcal/mol.
The matching figures for “SAGGSAGGPKIRIEIEHYDNYIVISIRIPPGMPPGQEIKFEIGGYPVKVTYDPEDGWMTISFPASAGGSAGG [r6_267_TrROS]”: 3.06 ± 0.082 kcal/mol, 3.24 ± 0.076 kcal/mol and 3.2 ± 0.14 kcal/mol.
The matching figures for “SAGGSAGGPKTKTVDFIVPALDENGNPLPDNAKFTFKLPDKTINIDFKRDKDSDYVLVKATITNSAGGSAGG [r6_657_TrMRF]”: 0.901 ± 0.14 kcal/mol, 0.197 ± 0.11 kcal/mol and 0.625 ± 0.098 kcal/mol.
For “SAGGSAGGPLVFEADATGTAPDDKELVIERVLVVVDPVRGEAHLYARIPGTGEWRYLGTFDLKDSAGGSAGG [r6_329_TrMRF]”, the “folding stability dG unfold” value in data set [1] came out at 3.315 ± 0.023 kcal/mol; in data set [2] it was 2.91 ± 0.093 kcal/mol; in data set [3], 3.21 ± 0.082 kcal/mol.
With “SAGGSAGGPSLRLTFPFPPGFSVTIELFPDGTARITIHNSDGSLLLSFSIPLPPVIPPDPSSLLSAGGSAGG [r6_238_TrMRF]”, the “folding stability dG unfold” value turned out to be 2.63 ± 0.084 kcal/mol in data set [1], 3.33 ± 0.17 kcal/mol in data set [2] and 2.84 ± 0.38 kcal/mol in data set [3].
For the sequence “SAGGSAGGPVIEIEMPKNGFFRVKIWNPGNGKKQEYWIPPDEPDALKSLLDPGIDRVEIEPYPPSAGGSAGG [r6_640_TrROS]”, the entries for the “folding stability dG unfold” value in data set [1], in data set [2] and in data set [3] were 1.04 ± 0.1 kcal/mol, -0.000886 ± 0.15 kcal/mol and 0.671 ± 0.082 kcal/mol, respectively.
The matching figures for “SAGGSAGGPVRITSVRPIPGDPNVVVLELETVDGRPGTVLLVRLPGGERVAVLTLGDRPVVLPLSAGGSAGG [r6_555_TrMRF]”: 1.93 ± 0.065 kcal/mol, 0.42 ± 0.013 kcal/mol and 1.41 ± 0.045 kcal/mol.
The corresponding values for “SAGGSAGGPVWKIRFPDDGKPYEFHINPNHGMIEVEDPKDGEPKGTVPMPINQLLEKGMEVEPVSAGGSAGG [r6_832_TrROS]” are -0.45 ± 0.26 kcal/mol, -0.769 ± 0.28 kcal/mol and -0.551 ± 0.21 kcal/mol.
The matching figures for “SAGGSAGGRFRIKFKNGPVIEIDPNEPTIRFPDGSRRFPLNGDDAEEALEEFLSNGMKITEIEPSAGGSAGG [r6_340_TrROS]”: 0.99 ± 0.14 kcal/mol, -0.149 ± 0.2 kcal/mol and 0.641 ± 0.16 kcal/mol.
For the sequence “SAGGSAGGRIMIPVKNIKGQPAEEAKQWLKAILRELFPPGMKIDIDVQPDKDGEYWVTIDIKPPSAGGSAGG [r6_964_TrROS]”, the “folding stability dG unfold” value in data set [1] came out at 2.48 ± 0.099 kcal/mol; in data set [2] it was 1.64 ± 0.23 kcal/mol; in data set [3], 2 ± 0.44 kcal/mol.
For “SAGGSAGGRRIYLPDFGAGGSGLVKAAEIAAAFEEEGYVASVSFSTSPFGPSVLVVDVASPSELSAGGSAGG [r6_597_TrMRF]”, the “folding stability dG unfold” value in data set [1] was -0.0496 ± 0.13 kcal/mol; in data set [2], -0.606 ± 0.17 kcal/mol; in data set [3], -0.171 ± 0.14 kcal/mol.
The corresponding values for “SAGGSAGGRTLRIMVPMDSPEDAVEQAKEIVRELGLPPNFKIDDINVHRNPNGRYQVMVKIRVNSAGGSAGG [r6_284_TrROS]” are 1.5 ± 0.07 kcal/mol, 1.05 ± 0.052 kcal/mol and 1.35 ± 0.064 kcal/mol.
The matching figures for “SAGGSAGGSAAITIEVKPGETVTITLEIEVELPPGARAADGRTFKPGEKVRVTVTLTLRVEPSAGGSAGGSA [r18_450_TrROS_Hall]”: 4.21 ± 0.27 kcal/mol, 3.72 ± 0.21 kcal/mol and 4.26 ± 0.22 kcal/mol.
Consider “SAGGSAGGSAAMLNRKPTVYPLPDDTVRLEETVPSPGTKIYKTIKLPPGGLIEEGDVSYPPSAGGSAGGSAG [r3_165_JUSTAS]”, for which the “folding stability dG unfold” value in data set [1] is -0.367 ± 0.23 kcal/mol; in data set [2], -1.08 ± 0.31 kcal/mol; in data set [3], -0.521 ± 0.19 kcal/mol.
For “SAGGSAGGSAAPEVTIKVTITYDPETNVLTIEAEATLPDGRKVRITARINKDGSIEIVSVEEVSAGGSAGGS [r12_1029_TrROS_Hall]”, the figures for the “folding stability dG unfold” value in data set [1], in data set [2] and in data set [3] were 4.61 ± 0.91 kcal/mol, 4.63 ± 0.64 kcal/mol and greater than 6 kcal/mol, respectively.
The matching figures for “SAGGSAGGSADDGDPNKQEPKPEVKVRPIEIRMSFAYYPPNGEPWMFSIEIRIWVYDGGLVSAGGSAGGSAG [r3_380_TrROS]”: 5.61 ± 0.095 kcal/mol, 3.85 ± 0.1 kcal/mol and 5.34 ± 0.16 kcal/mol.
“SAGGSAGGSADEEKLKELAEKLREAGYEVEVERYPDKVVIRVRNKKTGKTLELVFDSVEEALSAGGSAGGSA [r18_278_TrROS_Hall]”: the results for the “folding stability dG unfold” value in data set [1], in data set [2] and in data set [3] were 2.95 ± 0.096 kcal/mol, 4.24 ± 0.12 kcal/mol and 3.92 ± 0.15 kcal/mol, respectively.
Regarding “SAGGSAGGSADGPPTFRVRIKWKNGKKMKFEIDPNDSLEQVADPLSKLPGIDDIKDLEIYPSAGGSAGGSAG [r3_308_TrROS]”, the “folding stability dG unfold” value in data set [1] was 1.05 ± 0.44 kcal/mol; in data set [2], 0.725 ± 0.13 kcal/mol; in data set [3], 0.764 ± 0.18 kcal/mol.
